Measurements reported in paper PMC9479348 (Journal of Nanobiotechnology, 2022).

Target: lysozyme (UniProt P00698)
Assay: ELISA; phage ELISA: lysozyme immobilised in a 96-well NUNC Maxisorp plate; 1ZVH displayed on phage
Details: one partner purified

Chain of lysozyme (P00698 19-147): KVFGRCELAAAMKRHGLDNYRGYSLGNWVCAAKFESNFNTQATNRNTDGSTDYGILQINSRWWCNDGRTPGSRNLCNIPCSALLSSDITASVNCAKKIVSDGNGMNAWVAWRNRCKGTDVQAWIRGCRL

B1: camel nanobody 1ZVH, displayed on phage (VHH)
VHH: DVQLVESGGGSVQAGGSLRLSCAASGYIASINYLGWFRQAPGKEREGVAAVSPAGGTPYYADSVKGRFTVSLDNAENTVYLQMNSLKPEDTALYYCAAARQGWYIPLNSYGYNYWGQGTQVTVSS
notes: also called template of the ASyNAL library
- binding result: binds
